Data from PMC8455029.

Tests used:
[1] = target: AtFN3K C32A/C236A/C196A (Arabidopsis thaliana); test: SEC
[2] = target: AtFN3K C32A/C236A/C196A (Arabidopsis thaliana); test: AUC

AtFN3K C32A/C236A/C196A (enzyme)
stoichiometry N [1]: 2 | stoichiometry N [2]: 2
